Here are results for 12 molecules from patent US20090022717A1 (CHEMOCENTRYX, published 2009).

The labels stand for the following.
T1: CXCR2 (UniProt P25025 1-360, limits assumed)
T1 construct: whole, on cells
T1 sequence (looked up): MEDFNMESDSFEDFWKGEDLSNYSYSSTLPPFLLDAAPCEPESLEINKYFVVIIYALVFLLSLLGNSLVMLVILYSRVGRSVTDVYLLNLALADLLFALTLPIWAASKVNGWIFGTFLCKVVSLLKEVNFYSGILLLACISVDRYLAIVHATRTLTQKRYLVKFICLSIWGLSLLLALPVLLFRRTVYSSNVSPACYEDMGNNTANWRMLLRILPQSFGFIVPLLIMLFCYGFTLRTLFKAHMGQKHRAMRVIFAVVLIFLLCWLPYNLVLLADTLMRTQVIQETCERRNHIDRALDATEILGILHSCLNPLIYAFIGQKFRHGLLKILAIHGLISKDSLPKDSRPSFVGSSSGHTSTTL

B1: monoclonal antibody 11G8 (antibody, V domains shown)
VH: EVKLVESGGDLVQPGGSLKLSCATSGFTFSDYYMFWVRQTPEKRLEWVAYITNGGDRSYYSDTVTGRFIISRDNAKNTLYLQMSRLKSEDTAMYYCARQGNWAAWFVYWGQGTLVTVSA
VL: DVLMTQTPLSLPVSLGDQASISCRSSHYIVHSDGNTYLEWYLQKPGQSPKLLIYKVSNRFSGVPDRFSGSGSGTDFTLKISRVEAEDLGIYYCFQGSHVPLTFGAGTKLELKR
notes: Mouse hybridoma monoclonal raised by gene gun immunisation with CXCR7 cDNA
B2: monoclonal antibody 6E10 (antibody, V domains shown)
VH: EVKLDETGGGLVQPGRPMKLSCVASGFTFSDYWMNWVRQSPEKGLEWVGQIRNKPYNYETYYSDSVKGRFTISRDDSKSSVYLQMNNLRTEDTGIYYCTSLRYWGQGTLVTVSA
VL: DIVMTQSPSSLTVTAGEKVTMSCKSSHSLLNSGIQKNFLTWYQQKPGQPPKVLIYWAFTRESGVPERFTGSGSGTDFTLTISSVQAEDLAVYYCQSDYTYPFTFGSGTKLEIKR
notes: as for B1

Test [1] addresses B1. In words: peptide competition of antibody staining of CXCR7-expressing cells, FACS. How it is done:
(§1) We have established that both 11G8 and 6E10 antibodies recognize CXCR7 receptor expressed on the surface of cells by FACS. This is represented as an increase in florescent signal (filled) over background (open line) along the X axis of FACS plot (FIG. 2). To interrogate which amino acid residues 11G8 and 6E10 recognize and bind to, a number of short peptides (0.5-5 μg) derived from the CXCR7 sequence were pre-incubated with either antibody (0.5-5 μg) in 100 μl PBS. This mixture was then incubated with 500,000 cells expressing CXCR7 for 15 minutes at room temperature. If the antibody recognized the sequence encoded by the peptide, then the peptide would effectively compete antibody away from binding to the cell associated receptor resulting in a subsequent reduction in florescence on a FACS plot. […] These readouts are exemplified in FIG. 2 with “no peptide” representing […] antibody staining, “peptide 2.2.1” representing peptide competition, and “peptide 2.3.4” representing no peptide competition. Through slight alternations of the peptide sequence in this assay, the minimal peptide sequence necessary for antibody recognition was discerned. FIG. 3 illustrates a summary of peptides that competed with either antibody 11G8 or 6E10.

The test “monoclonal antibody 6E10” concerns the target B2. Described as above. On the procedure:
as §1

In the next test the target is T1, CXCR2. In words: flow cytometry on transfected HEK 293 cells. On the technique in general: Flow cytometry measures light scatter and fluorescence of single cells or particles in a stream.
A further test has as its target T2, human CXCR7 (human, UniProt P25106 1-362).
T2 construct: also called RDC1; CCX-CKR2
In words: flow cytometry on CXCR7 transfectants (HEK 293) and on HeLa and MCF-7 cells.

Another test addresses T3, mouse CXCR7 (mouse, UniProt P56485 1-362).
T3 construct: whole, on cells; Endogenous on the mouse mammary tumor line 4T1 and on Lewis lung carcinoma cells; also E13 fetal mouse sections; also called mouse homolog of CXCR7
As to the kind of experiment: detection on mouse 4T1 mammary tumor cells and Lewis lung carcinoma cells.

For test [2], the target named is B1. As to the kind of experiment: peptide pre-incubated with antibody, then FACS staining of CXCR7-expressing cells (FIG. 2, 11G8 on 435-CXCR7 cells). On the procedure:
as §1

T3 sequence (P56485 whole entry): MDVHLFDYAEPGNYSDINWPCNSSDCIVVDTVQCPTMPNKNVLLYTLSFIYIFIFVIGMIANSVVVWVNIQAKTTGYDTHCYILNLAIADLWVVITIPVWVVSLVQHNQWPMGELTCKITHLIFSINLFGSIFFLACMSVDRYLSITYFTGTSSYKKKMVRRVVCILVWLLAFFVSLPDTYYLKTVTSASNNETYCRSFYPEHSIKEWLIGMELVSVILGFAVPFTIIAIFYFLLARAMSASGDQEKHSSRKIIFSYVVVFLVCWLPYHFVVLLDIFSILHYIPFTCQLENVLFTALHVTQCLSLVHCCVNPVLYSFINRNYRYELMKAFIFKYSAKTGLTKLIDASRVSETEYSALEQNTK
T2 sequence (P25106 whole entry): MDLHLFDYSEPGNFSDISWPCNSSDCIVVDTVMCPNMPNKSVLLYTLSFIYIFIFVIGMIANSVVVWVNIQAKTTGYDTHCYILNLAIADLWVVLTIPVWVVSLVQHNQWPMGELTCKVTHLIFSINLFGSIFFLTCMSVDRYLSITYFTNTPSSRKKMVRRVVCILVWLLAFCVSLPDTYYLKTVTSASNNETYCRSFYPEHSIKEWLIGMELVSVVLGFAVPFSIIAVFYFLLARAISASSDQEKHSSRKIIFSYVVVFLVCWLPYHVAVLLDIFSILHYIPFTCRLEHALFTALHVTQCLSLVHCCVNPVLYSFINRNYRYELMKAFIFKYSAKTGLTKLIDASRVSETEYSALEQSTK

Consider YSDINWPC (also called Peptide 2.2.3) [SEQ ID NO 14], for which the binding result in the test with monoclonal antibody 11G8 [1] is reported as “binds”.

For the molecule DYSEPGNFSDISWPC (also called Peptide 9C4) [SEQ ID NO 11], the binding result with monoclonal antibody 11G8 [1] is recorded as “binds”.

Consider WPCNSSDCIVV (also called Peptide 2.2.5) [SEQ ID NO 16], for which, in the test with monoclonal antibody 6E10, the binding result is “binds”.

With SWPCNSSDCIVV (also called Peptide 2.1.2) [SEQ ID NO 9], the binding result with monoclonal antibody 6E10 is on record as “binds”.

Take NWPCNSSDCIVV (also called Peptide 2.2.6) [SEQ ID NO 17]: in the test with monoclonal antibody 6E10, the binding result is “binds”.

Take FSDISWPC (also called Peptide 2.2.1) [SEQ ID NO 12]: the binding result with monoclonal antibody 11G8 [1] is given as “binds”.

B1: the binding result was “no binding” in the test with CXCR2, “binds” in the test with human CXCR7 and “binds” in the test with mouse CXCR7.

Take B2: the figures for the binding result with CXCR2, in the test with human CXCR7 and in the test with mouse CXCR7 were “no binding”, “binds” and “binds”, respectively.

In the case of NFSDISWP (also called Peptide 2.3.1) [SEQ ID NO 18], the binding result with monoclonal antibody 11G8 [1] is on record as “binds”.

In the case of PCNSSDCIV [peptide 2.3.4], the binding result with monoclonal antibody 11G8 [2] is given as “no binding”.

FSDISWPCNSSDCIVVD (also called Peptide 2) [SEQ ID NO 2]: the binding result with monoclonal antibody 11G8 [1] and with monoclonal antibody 6E10 was “binds” throughout.

For the molecule DISWPCNSSDCI (also called Peptide 2.1.1) [SEQ ID NO 8], the binding result with monoclonal antibody 6E10 was “binds”.
